Values joined by “and” are separate entries in the source; they are usually repeats but may differ in a detail not shown here. Identical values can stand only once. Like-named read-outs stand apart in the source and are kept apart here.
Columns and labels:
[1] = biological target: T1, purified recombinant HA protein of H1N1 (A/California/04/09) (Influenza A virus A/California/04/09 …, UniProt P26140 18-529)
[2] = biological target: T1, purified recombinant HA protein of H1N1 …; assay: SPR, Biacore T200, HA captured via anti-6x his tag antibody, 25 C

B1: CT149 (antibody, V domains shown)
VH: QVQLVQSGAEVKKPGASVKVSCKTSGYSFSTYGVSWVRQAPGQGPEWVGWISAYTGITDYAQKFQGRVTLTTDATTATAFLDLRSLRPDDTATYFCARDKVQGRVEVGSGGRHDYWGQGTLVIVSS
VL: EVVLTQSPGTLALPPGERATLSCRASHRVGSTYIAWYQQKSGQAPRRLIYGASNRATDIPDRFSGSGSGTDFTLTIRRLEPEDSAVYYCQQFSVSPWTFGQGTRVEIKR
Kd [1]: 30.6 nM
Kd [2]: 30.2 nM and 31 nM
koff [2]: 0.0388 s⁻¹ and 0.0399 s⁻¹
kon [2]: 1.29e+06 M⁻¹ s⁻¹
